Data on one molecule can be found in US20190248863A1 (published 2019).

Common to all, as to assay: cell-based or functional assay
For one assay, the target named is T1, cynomolgus monkey RXFP1 (cynomolgus monkey, UniProt H9ERA2 1-757 (rhesus entry)).
T1 sequence: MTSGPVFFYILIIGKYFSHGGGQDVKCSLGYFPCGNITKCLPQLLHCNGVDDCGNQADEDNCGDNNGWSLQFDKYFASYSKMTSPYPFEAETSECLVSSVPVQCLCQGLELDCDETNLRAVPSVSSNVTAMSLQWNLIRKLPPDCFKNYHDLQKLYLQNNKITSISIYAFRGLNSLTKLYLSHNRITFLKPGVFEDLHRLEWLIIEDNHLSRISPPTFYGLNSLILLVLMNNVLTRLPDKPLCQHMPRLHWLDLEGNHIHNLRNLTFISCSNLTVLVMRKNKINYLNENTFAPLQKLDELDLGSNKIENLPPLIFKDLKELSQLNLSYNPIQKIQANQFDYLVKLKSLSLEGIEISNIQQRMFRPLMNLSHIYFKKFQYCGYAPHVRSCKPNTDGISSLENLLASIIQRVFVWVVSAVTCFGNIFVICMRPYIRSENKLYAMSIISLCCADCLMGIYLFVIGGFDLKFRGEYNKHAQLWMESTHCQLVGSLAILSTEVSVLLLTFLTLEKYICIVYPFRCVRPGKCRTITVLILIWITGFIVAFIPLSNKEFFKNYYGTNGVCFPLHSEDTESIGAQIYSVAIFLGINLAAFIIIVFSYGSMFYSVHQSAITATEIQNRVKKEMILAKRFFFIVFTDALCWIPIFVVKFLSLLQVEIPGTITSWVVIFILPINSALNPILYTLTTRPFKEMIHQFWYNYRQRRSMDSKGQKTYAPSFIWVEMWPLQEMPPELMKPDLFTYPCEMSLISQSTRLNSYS

The target in a further assay is T2, rat RXFP1 (rat, UniProt Q6R6I6 1-758).
T2 sequence (looked up): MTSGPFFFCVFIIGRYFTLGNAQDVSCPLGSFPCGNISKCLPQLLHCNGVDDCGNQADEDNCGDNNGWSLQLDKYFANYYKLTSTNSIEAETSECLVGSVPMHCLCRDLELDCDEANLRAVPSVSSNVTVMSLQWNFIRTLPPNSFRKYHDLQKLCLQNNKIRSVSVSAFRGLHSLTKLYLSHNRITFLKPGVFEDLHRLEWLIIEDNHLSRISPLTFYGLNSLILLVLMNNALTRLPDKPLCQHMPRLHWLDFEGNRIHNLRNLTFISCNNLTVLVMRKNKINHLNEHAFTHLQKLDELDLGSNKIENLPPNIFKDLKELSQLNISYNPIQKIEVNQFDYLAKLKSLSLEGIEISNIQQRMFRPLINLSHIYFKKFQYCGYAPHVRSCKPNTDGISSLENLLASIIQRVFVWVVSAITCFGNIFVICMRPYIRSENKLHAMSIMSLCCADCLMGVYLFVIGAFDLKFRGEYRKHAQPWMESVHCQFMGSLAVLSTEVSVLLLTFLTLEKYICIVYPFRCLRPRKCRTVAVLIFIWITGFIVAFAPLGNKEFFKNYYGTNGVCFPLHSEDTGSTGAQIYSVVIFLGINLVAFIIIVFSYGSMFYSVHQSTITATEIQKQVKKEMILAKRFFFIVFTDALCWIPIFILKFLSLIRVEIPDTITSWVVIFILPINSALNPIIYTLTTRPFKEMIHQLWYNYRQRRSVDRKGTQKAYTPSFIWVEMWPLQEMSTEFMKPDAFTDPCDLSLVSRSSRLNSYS

The target in another assay is dog RXFP1 (dog).
The target in a further assay is T3, human RXFP1 (human, UniProt Q9HBX9 1-757).
T3 sequence (looked up): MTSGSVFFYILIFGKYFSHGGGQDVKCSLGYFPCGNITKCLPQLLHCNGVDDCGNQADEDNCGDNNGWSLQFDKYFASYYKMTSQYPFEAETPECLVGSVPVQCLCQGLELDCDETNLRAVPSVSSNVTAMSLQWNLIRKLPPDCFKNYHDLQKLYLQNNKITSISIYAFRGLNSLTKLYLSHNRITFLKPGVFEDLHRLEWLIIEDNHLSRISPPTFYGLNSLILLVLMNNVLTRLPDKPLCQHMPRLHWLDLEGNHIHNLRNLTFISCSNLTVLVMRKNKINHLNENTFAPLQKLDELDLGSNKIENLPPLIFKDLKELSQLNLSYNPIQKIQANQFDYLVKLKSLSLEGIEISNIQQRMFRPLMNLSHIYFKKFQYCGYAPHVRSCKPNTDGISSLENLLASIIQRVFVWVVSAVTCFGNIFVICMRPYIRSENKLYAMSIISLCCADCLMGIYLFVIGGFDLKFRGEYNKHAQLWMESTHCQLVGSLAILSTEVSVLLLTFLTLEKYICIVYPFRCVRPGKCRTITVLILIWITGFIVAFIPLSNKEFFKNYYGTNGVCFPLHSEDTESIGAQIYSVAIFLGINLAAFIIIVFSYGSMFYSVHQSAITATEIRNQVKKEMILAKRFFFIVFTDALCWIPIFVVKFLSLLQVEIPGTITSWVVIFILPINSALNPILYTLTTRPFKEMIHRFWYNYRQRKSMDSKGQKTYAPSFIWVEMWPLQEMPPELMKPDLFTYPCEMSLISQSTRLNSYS

Another assay concerns the target T4, mouse RXFP1 (mouse, UniProt Q6R6I7 1-758).
T4 sequence (looked up): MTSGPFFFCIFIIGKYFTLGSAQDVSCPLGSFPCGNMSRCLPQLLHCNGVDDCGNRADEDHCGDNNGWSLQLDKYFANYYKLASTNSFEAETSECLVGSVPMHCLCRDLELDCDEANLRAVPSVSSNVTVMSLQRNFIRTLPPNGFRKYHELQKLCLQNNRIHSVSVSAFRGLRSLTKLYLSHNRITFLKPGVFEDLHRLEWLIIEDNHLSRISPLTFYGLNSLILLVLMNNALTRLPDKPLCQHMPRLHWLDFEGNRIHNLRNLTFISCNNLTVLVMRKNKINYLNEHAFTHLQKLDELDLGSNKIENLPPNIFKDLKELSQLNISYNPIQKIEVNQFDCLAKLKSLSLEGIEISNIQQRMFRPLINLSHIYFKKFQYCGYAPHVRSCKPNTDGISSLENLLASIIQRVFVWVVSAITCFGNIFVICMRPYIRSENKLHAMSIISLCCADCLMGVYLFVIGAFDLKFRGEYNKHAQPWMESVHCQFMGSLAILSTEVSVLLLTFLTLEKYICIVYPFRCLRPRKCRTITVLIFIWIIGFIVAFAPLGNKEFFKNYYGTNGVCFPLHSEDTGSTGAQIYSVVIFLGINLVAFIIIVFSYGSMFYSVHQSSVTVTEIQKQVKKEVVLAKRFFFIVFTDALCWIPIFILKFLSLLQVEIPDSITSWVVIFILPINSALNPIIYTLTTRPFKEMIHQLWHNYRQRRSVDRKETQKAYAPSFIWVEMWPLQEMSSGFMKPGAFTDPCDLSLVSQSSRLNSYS

B1: RLX-A-AQ1-20KPEG (ligand)
chain 1: XLYSALANKCCHVGCTKRSLARFC
chain 2: ASWMEEVIKLCGRELVRAQIAICGMSTWS
modifications: para-acetylphenylalanine (pAcF, X) at position 1 of the A chain, linked to a 20 kDa PEG via an oxime linkage
B1: the “RLX-A-AQ1-20KPEG Potency Ratio (hRXFP1-1.0), cAMP assay” value with cynomolgus monkey RXFP1 was found to be 1.6 fold; with rat RXFP1 it was 0.34 fold; with dog RXFP1, 4.7 fold; in the assay with human RXFP1, 1 fold; with mouse RXFP1, 0.66 fold.
